Laboratory results reported in US20240174744A1 (SCIRHOM, published 2024).

T1: hiR2-FL-WT-FLAG (human iRhom2 full length wild type C-terminally tagged with the triple-FLAG epitope) (human, UniProt Q6PJF5 1-856)
T1 construct: also called expressed by MEF-DKO-hiR2-FL-WT-FLAG cells
T1 sequence: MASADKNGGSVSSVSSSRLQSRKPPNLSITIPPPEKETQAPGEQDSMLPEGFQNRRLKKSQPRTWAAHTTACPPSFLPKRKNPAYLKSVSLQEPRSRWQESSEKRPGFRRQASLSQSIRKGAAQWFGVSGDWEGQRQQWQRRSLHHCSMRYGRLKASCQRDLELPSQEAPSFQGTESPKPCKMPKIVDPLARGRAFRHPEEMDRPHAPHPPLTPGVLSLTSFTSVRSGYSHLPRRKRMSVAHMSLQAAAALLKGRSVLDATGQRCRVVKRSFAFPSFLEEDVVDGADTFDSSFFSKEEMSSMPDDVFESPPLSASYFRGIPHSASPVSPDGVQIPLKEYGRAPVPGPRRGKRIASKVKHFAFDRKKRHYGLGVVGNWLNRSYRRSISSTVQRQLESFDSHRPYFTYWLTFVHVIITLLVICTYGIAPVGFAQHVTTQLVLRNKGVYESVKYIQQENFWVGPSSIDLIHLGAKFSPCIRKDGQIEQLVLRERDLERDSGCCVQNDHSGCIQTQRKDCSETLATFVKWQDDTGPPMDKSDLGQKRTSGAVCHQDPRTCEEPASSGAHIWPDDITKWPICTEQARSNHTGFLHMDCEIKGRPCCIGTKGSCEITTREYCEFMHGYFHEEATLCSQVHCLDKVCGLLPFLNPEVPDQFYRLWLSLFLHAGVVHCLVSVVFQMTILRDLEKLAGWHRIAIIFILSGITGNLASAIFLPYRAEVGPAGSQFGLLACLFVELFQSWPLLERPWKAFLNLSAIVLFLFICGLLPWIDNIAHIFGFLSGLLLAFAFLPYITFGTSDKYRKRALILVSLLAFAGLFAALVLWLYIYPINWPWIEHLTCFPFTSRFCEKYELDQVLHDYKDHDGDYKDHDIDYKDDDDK

B1: antibody 51 (antibody, V domains shown)
VH: QVQLQQSGAELVKPGASVKISCKASGYTFSNYWMNWVKQRPGKGLEWIGQIYPGDGDTKYNGKFKNKATLTADKSSSTAYMQFSSLTSEDSAVYFCARGDLVFVYWGLGTLVTVSA
VL: DVQITQSPSYLAVSPGETITINCRASKNIRKYLAWYQEKPGKTNKLLIYSGSTSQSGVPSRFSGSGSGTDFTLTISSLEPEDFAMYYCQQHNEYPYTFGGGTKLEIK
notes: Mouse IgG, kappa light chain; also called clone #51
B2: antibody 47 (antibody, V domains shown)
VH: QVQLQQSGAELVRPGTSVKVSCKASGYAFTNYLIEWVKQRPGQGLEWIGVINPGSGFTNYNEKFKGKAILNADKSSSTAYMQLISLTSEDSAVYFCARDLKRAMDHWGQGTSVTVSS
VL: DIQMTQSPASQSASLGESVTITCLASQTIGTWLAWYQQKPGKSPQLLIHAATSLADGVPSRFSGSGSGTKFSFKISSLQAEDFVSYYCQQIYSSPYTFGGGTKLEIK
notes: Mouse IgG, kappa light chain; also called clone #47

Target: T1, hiR2-FL-WT-FLAG (human iRhom2 full …)
Assay: FACS, MEF-DKO-hiR2-FL-WT-FLAG cells, 3 µg/ml
Procedure: In brief, immortalized MEF-DKO-EV control cells, MEF-DKO-hiR2-FL-WT-FLAG cells and MEF-DKO-miR2-FL-WT-FLAG cells were harvested with 10 mM EDTA in PBS, washed and resuspended in FACS buffer (PBS, 3% FBS, 0.05% sodium azide), and seeded in Nunc U-bottom 96-well plates (Thermo Fisher Scientific, USA) at approximately 3×10⁵ cells per well. To pellet cells and remove supernatants, the plates were centrifuged at 1,500 rpm and 4° C. for 3 minutes. For primary staining, cells were resuspended in 100 μl per well of either FACS buffer alone (controls), mouse monoclonal anti-FLAG IgG (Sigma-Aldrich, USA) at 3 μg/ml FACS buffer or the antibodies of the present disclosure also at 3 μg/ml FACS buffer and incubated on ice for 1 hour. Afterwards, plates were centrifuged at 1,500 rpm and 4° C. for 3 minutes and washed twice with 200 μl per well of FACS buffer. For secondary staining, cells were spun down and resuspended in 100 μl per well of PE-conjugated goat anti-mouse IgG F(ab′)2 detection fragment (Dianova, Germany) diluted 1:100 in FACS buffer. Protected from light, the cell suspensions were incubated on ice for 1 hour. Plates were then centrifuged at 1,500 rpm and 4° C. for 3 minutes and washed three times with 200 μl per well of FACS buffer. Finally, cells were resuspended in 150 μl per well of FACS buffer and analyzed using a BD Accuri™ C6 Plus flow cytometer (Becton Dickinson, Germany).

Binder | binding result
B1 | binds
B2 | binds
